Reference: publication PMC9744909, “Functional crosstalk between the cohesin loader and chromatin remodelers” (Nature Communications, 2022)

T1: Scc2 subunit of the cohesin loader (S. cerevisiae, UniProt Q04002 1-1493)
T1 construct: Scc2, budding yeast, as it stands in the purified Scc2-Scc4 complex; Present within m1 in the cross-linking experiment; tags as told under m1; source: subunit of Scc2-Scc4 purified from budding yeast (overexpressed)
T1 sequence (looked up): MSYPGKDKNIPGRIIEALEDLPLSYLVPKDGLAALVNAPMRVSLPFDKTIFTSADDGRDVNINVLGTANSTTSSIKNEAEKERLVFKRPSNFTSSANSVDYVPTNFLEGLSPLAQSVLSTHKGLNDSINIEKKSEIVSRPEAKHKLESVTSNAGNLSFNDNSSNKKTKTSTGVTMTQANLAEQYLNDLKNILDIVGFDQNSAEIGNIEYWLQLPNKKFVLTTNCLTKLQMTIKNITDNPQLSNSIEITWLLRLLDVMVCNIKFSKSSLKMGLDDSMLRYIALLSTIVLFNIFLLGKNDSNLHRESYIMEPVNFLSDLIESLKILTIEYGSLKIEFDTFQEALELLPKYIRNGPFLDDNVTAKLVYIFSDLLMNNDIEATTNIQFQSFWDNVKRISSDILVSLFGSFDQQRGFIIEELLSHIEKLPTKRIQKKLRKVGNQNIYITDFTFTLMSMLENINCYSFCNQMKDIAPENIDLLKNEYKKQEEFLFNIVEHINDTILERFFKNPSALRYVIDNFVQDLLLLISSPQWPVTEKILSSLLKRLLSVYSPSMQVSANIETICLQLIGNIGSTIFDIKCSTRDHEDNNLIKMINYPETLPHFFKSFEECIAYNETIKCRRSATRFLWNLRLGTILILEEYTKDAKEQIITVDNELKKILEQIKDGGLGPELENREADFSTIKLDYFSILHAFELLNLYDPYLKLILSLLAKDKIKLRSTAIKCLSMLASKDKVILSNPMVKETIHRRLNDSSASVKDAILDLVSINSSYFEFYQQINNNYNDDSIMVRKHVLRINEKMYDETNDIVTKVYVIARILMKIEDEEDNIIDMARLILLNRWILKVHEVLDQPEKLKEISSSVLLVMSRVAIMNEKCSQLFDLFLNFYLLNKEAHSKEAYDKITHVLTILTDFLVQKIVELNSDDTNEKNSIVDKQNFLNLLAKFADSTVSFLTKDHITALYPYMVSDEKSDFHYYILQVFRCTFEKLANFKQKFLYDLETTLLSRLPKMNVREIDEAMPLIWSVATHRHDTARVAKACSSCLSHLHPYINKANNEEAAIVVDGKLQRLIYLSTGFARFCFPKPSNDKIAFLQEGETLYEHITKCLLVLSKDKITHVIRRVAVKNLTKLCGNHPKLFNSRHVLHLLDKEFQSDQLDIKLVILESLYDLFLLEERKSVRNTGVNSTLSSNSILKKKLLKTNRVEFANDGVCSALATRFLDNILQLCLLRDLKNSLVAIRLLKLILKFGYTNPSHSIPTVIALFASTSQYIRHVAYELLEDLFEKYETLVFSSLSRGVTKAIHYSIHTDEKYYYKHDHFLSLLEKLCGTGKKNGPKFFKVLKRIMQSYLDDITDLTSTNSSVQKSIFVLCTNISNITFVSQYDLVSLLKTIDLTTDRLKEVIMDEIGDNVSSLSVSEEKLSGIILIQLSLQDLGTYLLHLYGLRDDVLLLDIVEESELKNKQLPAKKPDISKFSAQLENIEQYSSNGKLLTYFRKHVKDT

B1: Sth1, the large ATPase subunit of the RSC remodeler complex (natural protein, S. cerevisiae)
chain: MLQEQSELMSTVMNNTPTTVAALAAVAAASETNGKLGSEEQPEITIPKPRSSAQLEQLLYRYRAIQNHPKENKLEIKAIEDTFRNISRDQDIYETKLDTLRKSIDKGFQYDEDLLNKHLVALQLLEKDTDVPDYFLDLPDTKNDNTTAIEVDYSEKKPIKISADFNAKAKSLGLESKFSNATKTALGDPDTEIRISARISNRINELERLPANLGTYSLDDCLEFITKDDLSSRMDTFKIKALVELKSLKLLTKQKSIRQKLINNVASQAHHNIPYLRDSPFTAAAQRSVQIRSKVIVPQTVRLAEELERQQLLEKRKKERNLHLQKINSIIDFIKERQSEQWSRQERCFQFGRLGASLHNQMEKDEQKRIERTAKQRLAALKSNDEEAYLKLLDQTKDTRITQLLRQTNSFLDSLSEAVRAQQNEAKILHGEEVQPITDEEREKTDYYEVAHRIKEKIDKQPSILVGGTLKEYQLRGLEWMVSLYNNHLNGILADEMGLGKTIQSISLITYLYEVKKDIGPFLVIVPLSTITNWTLEFEKWAPSLNTIIYKGTPNQRHSLQHQIRVGNFDVLLTTYEYIIKDKSLLSKHDWAHMIIDEGHRMKNAQSKLSFTISHYYRTRNRLILTGTPLQNNLPELWALLNFVLPKIFNSAKTFEDWFNTPFANTGTQEKLELTEEETLLIIRRLHKVLRPFLLRRLKKEVEKDLPDKVEKVIKCKLSGLQQQLYQQMLKHNALFVGAGTEGATKGGIKGLNNKIMQLRKICNHPFVFDEVEGVVNPSRGNSDLLFRVAGKFELLDRVLPKFKASGHRVLMFFQMTQVMDIMEDFLRMKDLKYMRLDGSTKTEERTEMLNAFNAPDSDYFCFLLSTRAGGLGLNLQTADTVIIFDTDWNPHQDLQAQDRAHRIGQKNEVRILRLITTDSVEEVILERAMQKLDIDGKVIQAGKFDNKSTAEEQEAFLRRLIESETNRDDDDKAELDDDELNDTLARSADEKILFDKIDKERMNQERADAKAQGLRVPPPRLIQLDELPKVFREDIEEHFKKEDSEPLGRIRQKKRVYYDDGLTEEQFLEAVEDDNMSLEDAIKKRREARERRRLRQNGTKENEIETLENTPEASETSLIENNSFTAAVDEETNADKETTASRSKRRSSRKKRTISIVTAEDKENTQEESTSQENGGAKVEEEVKSSSVEIINGSESKKKKPKLTVKIKLNKTTVLENNDGKRAEEKPESKSPAKKTAAKKTKTKSKSLGIFPTVEKLVEEMREQLDEVDSHPRTSIFEKLPSKRDYPDYFKVIEKPMAIDIILKNCKNGTYKTLEEVRQALQTMFENARFYNEEGSWVYVDADKLNEFTDEWFKEHSS
notes: Sth1, budding yeast, as it stands in the purified RSC complex; Present within m2 in the cross-linking experiment; also called RSC ATPase; source: subunit of RSC purified from budding yeast (TAP-tagged Rsc2)
B2: Scc4 subunit of the cohesin loader (natural protein, S. cerevisiae)
chain: MENLGDKLSISQVYHLAQEYRDHAYSIANKIGSEEGLKQYYGLMNMSIQMFQLLKTKCTLSVLEDSKVTFEMVELLIQETYNFDLAELYISSLKERLQTHQSDTDLVEEIMRCEFLLLHDLPLMRDSKFHYKIALRNCNELVQYMVNLQDELYQNWASVFQYVGVMLCIKLKQHRRVKTSFHGLLSQCREKSQWKWFLNLCYVNYLLNERFPIPEDALQELRSTELHTVGPELYAWKLALEMVIQLCKDGNITDHLNEFKNFFDTNKQSLVTNEGKGCVIKIMPRIALKVELPMIFHYKELKNILLLLQSVSYIVNCYDEKGNFSRKFLPKVYSTTQKLIKNIAAGGVSMNELDSRIQTYKSILEFCEFYKVWEQTLLKGAVVTTESPKLGPSPGYVRLLQAMKVQFEGGGAVEEYTRLAQSGGTSSEVKMISLLNCYTVQAARVSRCSGDKQGELVEQCNKVWLQVEKLLQETDLQFNPIWECTVTILWLFSHFEPFSWNPLPCSDKQRAEYVSKLREFYSSNKFVAGEAVADNRFKLKKALLLQILVNYLGGRMLEHDLGEIYAISAKCFDMCRQQGGMRKVQYVIGIWHLMNCTVAMRGKDVALTNAKLEALVKQITSVKQ
notes: Scc4, budding yeast, as it stands in the purified Scc2-Scc4 complex; Present within m1 in the cross-linking experiment; tags as told under m1; source: subunit of Scc2-Scc4 purified from budding yeast (overexpressed)
B3: Sth1 365-1097 fragment (ATPase motor module) (domain or fragment, S. cerevisiae, UniProt P32597 365-1097, looked up)
chain: DEQKRIERTAKQRLAALKSNDEEAYLKLLDQTKDTRITQLLRQTNSFLDSLSEAVRAQQNEAKILHGEEVQPITDEEREKTDYYEVAHRIKEKIDKQPSILVGGTLKEYQLRGLEWMVSLYNNHLNGILADEMGLGKTIQSISLITYLYEVKKDIGPFLVIVPLSTITNWTLEFEKWAPSLNTIIYKGTPNQRHSLQHQIRVGNFDVLLTTYEYIIKDKSLLSKHDWAHMIIDEGHRMKNAQSKLSFTISHYYRTRNRLILTGTPLQNNLPELWALLNFVLPKIFNSAKTFEDWFNTPFANTGTQEKLELTEEETLLIIRRLHKVLRPFLLRRLKKEVEKDLPDKVEKVIKCKLSGLQQQLYQQMLKHNALFVGAGTEGATKGGIKGLNNKIMQLRKICNHPFVFDEVEGVVNPSRGNSDLLFRVAGKFELLDRVLPKFKASGHRVLMFFQMTQVMDIMEDFLRMKDLKYMRLDGSTKTEERTEMLNAFNAPDSDYFCFLLSTRAGGLGLNLQTADTVIIFDTDWNPHQDLQAQDRAHRIGQKNEVRILRLITTDSVEEVILERAMQKLDIDGKVIQAGKFDNKSTAEEQEAFLRRLIESETNRDDDDKAELDDDELNDTLARSADEKILFDKIDKERMNQERADAKAQGLRVPPPRLIQLDELPKVFREDIEEHFKKEDSEPLGRIRQKKRVYYDDGLTEEQFLEAVEDDNMSLEDAIKKRREARERRRLRQ
notes: Cloned into pGEX-6P-2; also called Sth1 ATPase module; source: E. coli BL21 Star (DE3) pLysS, purified (glutathione-sepharose, 3C protease cleavage, Superdex 200)

Tests used:
Conditions in all cases: both partners purified
[1] = molecular target: T1, Scc2 subunit of the cohesin loader; test: cross-linking; 0.5 uM cohesin loader and 0.5 uM RSC in CLMS buffer (22.5 mM HEPES-KOH pH 7.5, 75 mM NaCl, 100 mM potassium acetate, 10% glycerol, 0.5 mM TCEP), 1 mM DSSO 15 min 37 C, trypsin digest, tandem mass spectrometry; two biological repeats
[2] = molecular target: B1; test: as above
[3] = molecular target: T2, Scc2-Scc4 cohesin loader complex (S. cerevisiae, UniProt Q04002 1-1493; P40090 1-624); test: co-IP; 50 nM Scc2-Scc4 and 50 nM RSC or Sth1 365-1097 mixed in IP buffer (25 mM Tris-HCl pH 7.5, 100 mM NaCl, 2.5 mM MgCl2, 0.2% Triton X-100, 5% glycerol, 0.5 mM TCEP), loader captured on anti-HA protein A magnetic beads, last wash 300 mM NaCl; Sth1 detected by immunoblotting
T2 construct: Scc2, cohesin loader subunit, budding yeast; Scc4, cohesin loader subunit, budding yeast; Purified by a protein A tag that was removed by 3C protease; also called 2-4

B1: binds [1].

B2: binds [2].

B3: binds [3].
